From patent US20070092942A1, “Ubiquitin specific enzymes of family herpesviridae” (priority 2005, published 2007) come the findings set out here.

The data set has as its target T1, His6UL36^USP (Human herpesvirus 1, UniProt P10220).
T1 construct: amino acids 1 to 533 of the UL36 gene product from HHV HSV1; 6-His (pET-28a(+)) (N); 6-His (pET-28a(+)) (C); made in house; host or cells: E. coli BL21 or BL21 RIPL
Description: Cleavage of Ub-AMC by recombinant UL36^USP. The class given is biochemical, HSV-1. The conditions noted are these: ~0.1 pmol enzyme, Ub-AMC, 25° C. As to the method:
Recombinant UL36^USP and UL36^USP/C65A (˜0.1 pmol) were incubated in 125 μl kinetics buffer (50 mM HEPES, pH 7.5, 0.5 mM EDTA) supplemented with 1 mM DTT at room temperature for 10 minutes. To this was added 75 μl of Ub-AMC (250 nM in kinetics buffer) and AMC liberation was measured at 25° C. For inhibition experiments, one of UbVME, SUMO-VME, ISG15-VS, or Nedd8-VS (10 pmol) was incubated with recombinant UL36^USP (˜0.1 pmol) for 30 minutes at room temperature. To this was added 75 μl of Ub-AMC (250 nM in kinetics buffer) and AMC liberation was measured. Cleavage experiments were performed in triplicate. All fluorescence measurements were made using a Wallac Victor^3 1420 fluorescence/luminescence plate reader (Perkin Elmer) using 380 nm excitation and 460 nm emission wavelengths, with 5 second intervals between measurements. Data were exported as an Excel file and plotted as mean values of replicate experiments using Kaleidagraph v3.6 (Synergy Software).
In a typical eukaryotic cell, the presence of multiple DUBs, whose substrate pool and catalytic activities may overlap, confounds straightforward analysis of the activity of any one particular DUB. […] The proteins were expressed, purified over Ni-NTA resin and evaluated for their ability to cleave Ub C-terminal 7-amido-4-methylcoumarin (Ub-AMC) (Dang et al., 1998). […]

B1: His6UL36^USP: His-tagged recombinant 533 N-terminal amino acids of HSV-1 UL36, ubiquitin-specific cysteine protease (protein)
chain: MGGGNNTNPGGPVHKQAGSLASRAHMIAGTPPHSTMERGGDRDIVVTGARNQFAPDLEPGGSVSCMRSSLSFLSLIFDVGPRDVLSAEAIEGCLVEGGEWTRATAGPGPPRMCSIVELPNFLEYPGARGGLRCVFSRVYGEVGFFGEPAAGLLETQCPAHTFFAGPWALRPLSYTLLTIGPLGMGLFRDGDTAYLFDPHGLPEGTPAFIAKVRAGDMYPYLTYYTRDRPDVRWAGAMVFFVPSGPEPAAPADLTAAALHLYGASETYLQDEAFSERRVAITHPLRGEIAGLGEPCVGVGPREGVGGPGPHPPTAAQSPPPTRARRDDRASETSRGTAGPSAKPEAKRPNRAPDDVWAVALKGTPPTDPPSADPPSADPPSAIPPPPPSAPKTPAAEAAEEDDDDMRVLEMGVVPVGRHRARYSAGLPKRRRPTWTPPSSVEDLTSGEKTKRSAPPAKTKKKSTPKGKTPVGAAVPASVPEPVLASAPPDPAGPPVAEAGEDDGPTVPASSQALEALKTRRSPEPPGADLAQLF
modifications: left off: small tags and cut ends
notes: His-tagged recombinant 533 N-terminal amino acids of HSV-1 UL36, ubiquitin-specific cysteine protease
For the molecule B1, the “Turnover number for Ub-AMC cleavage” value is roughly 6 min⁻¹.
